Assay [1] deals with T1, Muc1 mucin bearing the CA6 sialoglycotope (DS6 antigen), as expressed by CA6-positive human tumour cell lines (human, UniProt P15941 24-1255, CA6 epitope: sialic acid-dependent glycotope on sialylated O-linked carbohydrate chains; sites not stated).
T1 construct: whole, on cells; Flow cytometry used whole cells; dot blots, immunoprecipitation and western blots used cell lysates; also called CA6 antigen; >250 kDa band
In words: flow cytometry competition; competitor 2 nM biotin-muDS6, streptavidin-DTAF (called apparent EC50 in paragraph 357). Background: Flow cytometry measures light scatter and fluorescence of single cells or particles in a stream.

The target in assay [2] is T1, Muc1 mucin bearing the CA6 …. Kind of assay: flow cytometry, direct binding to KB cells; apparent Kd. The procedure:
In the first set of experiments direct binding to a CA6-expressing cell line, KB, was measured.

The target is the same in assay [3]. In words: cell-based or functional assay.

Positions count from the first letter of the chain named.

From patent publication US20160355605A1 (published 2016) come the findings set out here.

As usually defined, the IC50 is the concentration that gives 50% inhibition.

B1: murine DS6 anti-CA6 monoclonal antibody (antibody, V domains shown)
VH: QAYLQQSGAELVRSGASVKMSCKASGYTFTSYNMHWVKQTPGQGLEWIGYIYPGNGATNYNQKFKGKATLTADPSSSTAYMQISSLTSEDSAVYFCARGDSVPFAYWGQGTLVTVSA
VL: QIVLTQSPAIMSASPGEKVTITCSAHSSVSFMHWFQQKPGTSPKLWIYSTSSLASGVPARFGGSGSGTSYSLTISRMEAEDAATYYCQQRSSFPLTFGAGTKLELKR
notes: Murine monoclonal IgG purified from the hybridoma (ATCC PTA-4449); also called muDS6; DS6 antibody
Turning to B1, in assay [1], the IC50 came out at 1.9 nM.

B2: chimeric DS6 antibody (antibody, V domains shown)
VH: B1 VH
VL: B1 VL
notes: also called chDS6
With B2, in assay [1], the IC50 came out at 1.7 nM.

B3: humanized DS6 antibody version 1.01 (antibody, V domains shown)
VH: B1 VH with Y3Q, Q5V, L11V, R13K, S14P, K65Q, P74T
VL: B1 VL with Q1E, I10T, K18R, R76S
notes: also called huDS6v1.01; huDS6 v1.01
Consider B3, for which, in assay [2], the Kd is 0.82 nM. The IC50 in assay [1] was 3 nM.

B4: huDS6v1.01-SPDB-DM4 conjugate (antibody, human IgG1, V domains shown)
VH: B1 VH with Y3Q, Q5V, L11V, R13K, S14P, K65Q, P74T
VL: B1 VL with Q1E, I10T, K18R, R76S
modifications: DM4 maytansinoid via SPDB disulfide linker, 3.2 DM4 per antibody; sites not stated
As for B4, the “in vitro cytotoxicity (MTT), WISH cells, IC50” value in assay [3] stood at 0.44 nM.

B5: humanized DS6 antibody version 1.21 (antibody, V domains shown)
VH: B1 VH with Y3Q, Q5V, L11V, R13K, S14P, K65Q
VL: B1 VL with Q1E, I10T, K18R, R76S
notes: also called huDS6v1.21; huDS6 v1.21
On to B5, for which the Kd in assay [2] is 0.85 nM. The IC50 in assay [1] was found to be 1.9 nM.
